# From patent publication US5574016A, “Peptide compound and a process for the preparation thereof” (Fujisawa Pharmaceutical Co., Ltd., priority 1991, dated 1996)
# B1: r-TPA: r-TPA [Actilyse (trademark); Boehringer Ingelheim Ltd], tissue plasminogen activator, infused for 60 minutes (protein, UniProt P00750 36-562, looked up)
# Tissue-type plasminogen …: SYQVICRDEKTQMIYQQHQSWLRPVLRSNRVEYCWCNSGRAQCHSVPVKSCSEPRCFNGGTCQQALYFSDFVCQCPEGFAGKCCEIDTRATCYEDQGISYRGTWSTAESGAECTNWNSSALAQKPYSGRRPDAIRLGLGNHNYCRNPDRDSKPWCYVFKAGKYSSEFCSTPACSEGNSDCYFGNGSAYRGTHSLTESGASCLPWNSMILIGKVYTAQNPSAQALGLGKHNYCRNPDGDAKPWCHVLKNRRLTWEYCDVPSCSTCGLRQYSQPQFRIKGGLFADIASHPWQAAIFAKHRRSPGERFLCGGILISSCWILSAAHCFQERFPPHHLTVILGRTYRVVPGEEEQKFEVEKYIVHKEFDDDTYDNDIALLQLKSDSSRCAQESSVVRTVCLPPADLQLPDWTECELSGYGKHEALSPFYSERLKEAHVRLYPSSRCTSQHLLNRTVTDNMLCAGDTRSGGPQANLHDACQGDSGGPLVCLNDGRMTLVGIISWGLGCGQKDVPGVYTKVTNYLDWIRDNMRP
# Test system: thrombosis model in Guinea-pig (FeCl3 carotid artery thrombosis)
# Experiment: Enhancement of thrombolytic activity of TPA in thrombosis model in Guinea-pig
# Format: in vivo, Male Hartley guinea-pigs
# Details: Group 1 (5 animals): saline and r-TPA 0.30 mg/kg i.v. bolus +1.0 mg/kg/hour i.v. infusion; reperfusion = 50 % recovery of carotid blood flow velocity; recorded up to 90 minutes
# Excerpt: Male Hartley guinea-pigs (500-800 g) were anesthetized with urethane (1.25 g/kg i.p.). The carotid artery and cervical vein were carefully exposed after a midline cervical insision. The vein was cannulated with a polyethylene catheter (PE50; Becton Dikinson, U.S.A.) for the injection and infusion of the drug. A pulse Dopplar flow probe was placed around the carotid artery to record the blood flow velocity to moniter thrombus formation and thrombolysis. Carotid artery thrombosis was induced by the FeCl3 method as follows;
# a square (1 mm×1 mm) of ADVANTEC No. 2 filter paper immersed in 20% FeCl3 was placed on the carotid artery which became occluded by a thrombus.
# When the blood flow velocity decreased to zero, the filter paper was removed from the vessel and the carotid artery were washed with saline more than 4 times. The test compound or saline was injected 3 minutes after the washing and 3 minutes later r-TPA [Actilyse (trademark); Boehringer Ingelheim Ltd] was infused for 60 minutes.
# The animals were divided into the following groups;
# Group 1 (5 animals): Saline and r-TPA at 0.30 mg/kg i.v. bolus +1.0 mg/kg/hour i.v. infusion […]
# The reperfusion was defined as 50 % recovery of carotid artery blood flow velocity compared with the initial value. The blood flow was recorded up to 90 minutes.
molecule,measurement,value
B1,number of animals in which reperfusion was observed,1
